Consider 2 substances from US20100095387A1, “METHODS AND REAGENTS FOR SCREENING NEW DRUGS AND FOR TREATING ION PUMP ASSOCIATED DISORDERS AND DISEASES” (priority 2005, published 2010).

For the test, the target named is α3 subunit of the Na+/K+-ATPase, endogenous on mouse cells (cortical neurons, cortical slices, cardiac myocytes) (mouse) (UniProt Q6PIC6). In words: cell-based or functional assay.

Turning to “C-Ag95z0, soluble 95-kD COOH terminus of mouse agrin, y4 z0 (from UniProt A2ASQ1 1144-1950) (ligand)”, the EC50 of c-fos induction (Fos in situ enzyme-linked immunoassay, cortical cultures) was 0.0119 nM.
The substance “C-Ag95z8, soluble 95-kD COOH terminus of mouse agrin, y4 z8 (from UniProt A2ASQ1 1144-1950) (ligand)” registered an EC50 of c-fos induction (Fos in situ enzyme-linked immunoassay, cortical cultures) of 0.0127 nM.
